Publication PMC6735382

Columns and labels:
[1] = biological target: Clover-PPARγ1 (human peroxisome proliferator-activated receptor gamma isoform 1, N-terminally labeled with Clover) (human) (UniProt P37231)
[2] = biological target: Clover-PPARγ1 (human peroxisome proliferator-activated receptor gamma isoform 1, N-terminally labeled with Clover) (human) (UniProt P37231); experiment: FRET or BRET; flow cytometry-based FRET (Clover donor, mRuby2 acceptor) in living, stably transduced HEK293T cells; percent FRET-positive among Clover/mRuby2-double positive cells and FRET efficiency from fluorescence medians; N-CoR2 WT cells also treated 24 h with DMSO, 1 µM rosiglitazone, 10 µM GW9662 or both

Chain of UniProt P37231 (P37231 29-505): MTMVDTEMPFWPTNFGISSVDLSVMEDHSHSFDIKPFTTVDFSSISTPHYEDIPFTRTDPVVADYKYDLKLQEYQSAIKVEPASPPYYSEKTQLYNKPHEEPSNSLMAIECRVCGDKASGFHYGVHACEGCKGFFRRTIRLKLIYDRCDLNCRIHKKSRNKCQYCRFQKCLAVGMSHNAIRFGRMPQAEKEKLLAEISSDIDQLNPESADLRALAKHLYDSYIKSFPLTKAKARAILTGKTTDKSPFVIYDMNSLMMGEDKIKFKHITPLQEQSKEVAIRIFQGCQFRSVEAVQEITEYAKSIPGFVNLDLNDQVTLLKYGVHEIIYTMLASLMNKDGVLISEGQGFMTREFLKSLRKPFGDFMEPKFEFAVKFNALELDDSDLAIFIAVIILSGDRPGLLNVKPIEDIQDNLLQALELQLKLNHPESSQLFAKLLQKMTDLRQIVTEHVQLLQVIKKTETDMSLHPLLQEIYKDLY

With “N-CoR2 WT-mRuby2 (N-terminally truncated human nuclear receptor co-repressor 2 with ID2 and ID1, C-terminally labeled with mRuby2) (domain or fragment)” the PPARγ-dependent transactivation (PPRE reporter p(AOX)3-TK-Luc) in HEK293T cells, 1 µM rosiglitazone 24 h against DMSO [1] was 3.5 fold and the percent FRET-positive cells [2] was 70%.
